# Assay results: patent US20250353926A1
# Target: PSMA expressed on target cells (PC3pip cells, high density; 22Rv1 cells, low density) (UniProt Q04609)
# Experiment: cell-based or functional assay
# Chain of PSMA expressed on target cells (PC3pip cells, high density; 22Rv1 cells, low density) (Q04609 whole entry): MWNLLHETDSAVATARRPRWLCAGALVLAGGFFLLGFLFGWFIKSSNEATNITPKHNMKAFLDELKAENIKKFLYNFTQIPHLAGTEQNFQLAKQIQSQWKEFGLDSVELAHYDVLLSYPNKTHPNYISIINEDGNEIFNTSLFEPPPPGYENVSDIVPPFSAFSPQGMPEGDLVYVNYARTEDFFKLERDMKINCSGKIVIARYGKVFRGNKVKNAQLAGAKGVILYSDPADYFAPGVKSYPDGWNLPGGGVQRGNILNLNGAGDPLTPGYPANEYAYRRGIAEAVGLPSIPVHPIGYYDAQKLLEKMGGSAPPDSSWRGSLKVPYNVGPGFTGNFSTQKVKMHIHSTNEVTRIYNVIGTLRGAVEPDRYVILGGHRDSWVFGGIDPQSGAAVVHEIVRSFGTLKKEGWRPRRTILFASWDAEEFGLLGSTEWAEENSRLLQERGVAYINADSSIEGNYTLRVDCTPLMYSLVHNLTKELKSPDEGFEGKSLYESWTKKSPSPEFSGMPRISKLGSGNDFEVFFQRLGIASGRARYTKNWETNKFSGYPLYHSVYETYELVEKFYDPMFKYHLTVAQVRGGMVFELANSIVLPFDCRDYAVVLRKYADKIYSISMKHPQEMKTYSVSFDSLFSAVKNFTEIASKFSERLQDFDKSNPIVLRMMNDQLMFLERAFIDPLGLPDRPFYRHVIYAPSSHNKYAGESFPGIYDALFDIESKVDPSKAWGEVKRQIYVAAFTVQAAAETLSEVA
substance,measurement,value
"monoclonal anti-PSMA antibody, J591","EC50; ADCC luciferase reporter assay (Jurkat CD16a V158 reporter cells), PC3pip 24 h continuous",0.16 nM
same,"EC50; ADCC reporter assay, 22Rv1 4 h washout, 24 h endpoint",> 500 nM
same,"EC50; ADCC reporter assay, PC3pip 4 h washout, 24 h endpoint",0.044 nM
